Earlier results on 2 substances are cited in paper PMC3865722.

The Kd is the equilibrium constant for the complex coming apart.

Read-outs that look alike come from different tables or passages of the source.

Series [1] has as its target SRSF1 (Homo sapiens) (UniProt Q07955).
The target is the same in series [2]. The source holds these as a separate data set.

SRSF1 (Homo sapiens), sequence (Q07955 2-248): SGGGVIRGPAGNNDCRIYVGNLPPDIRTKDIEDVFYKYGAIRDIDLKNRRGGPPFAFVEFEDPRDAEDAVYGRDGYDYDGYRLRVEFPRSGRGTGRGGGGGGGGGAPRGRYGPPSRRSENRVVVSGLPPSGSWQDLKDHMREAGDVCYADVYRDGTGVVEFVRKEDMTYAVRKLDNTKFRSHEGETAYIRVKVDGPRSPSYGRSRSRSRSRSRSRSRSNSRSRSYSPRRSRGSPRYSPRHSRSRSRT
CLK1, sequence (P49759 whole entry): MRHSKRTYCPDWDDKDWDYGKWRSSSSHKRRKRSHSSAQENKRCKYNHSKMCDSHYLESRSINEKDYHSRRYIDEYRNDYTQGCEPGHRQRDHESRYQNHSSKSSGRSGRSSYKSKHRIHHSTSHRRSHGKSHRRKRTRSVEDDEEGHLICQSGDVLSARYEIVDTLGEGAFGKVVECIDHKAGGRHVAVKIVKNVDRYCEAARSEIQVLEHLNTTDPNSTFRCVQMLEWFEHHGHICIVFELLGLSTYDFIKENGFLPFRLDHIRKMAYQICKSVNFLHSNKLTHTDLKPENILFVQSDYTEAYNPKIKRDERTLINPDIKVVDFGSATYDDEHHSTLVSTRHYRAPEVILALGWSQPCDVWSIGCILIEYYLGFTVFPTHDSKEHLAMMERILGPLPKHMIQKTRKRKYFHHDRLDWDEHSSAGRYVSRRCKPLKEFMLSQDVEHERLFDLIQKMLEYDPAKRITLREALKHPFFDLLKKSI

As to CLK1 (from UniProt P49759), the Kd in series [1] was less than 100 nM.

On to SRPK1 (from UniProt Q96SB4), for which the Kd in series [2] is less than 100 nM.
